Laboratory results published in patent publication US20240052044A1 (VIB VZW, published 2024).

Target: T1, human CCR8 (human, UniProt P51685 1-355)
T1 construct: On stably transfected HEK293 cells or CHO-K1 cells; also called hCCR8
Test: competition flow cytometry on hCCR8 HEK293 cells; competitor FLAG3-tagged VHH-69

T1 sequence (P51685 whole entry): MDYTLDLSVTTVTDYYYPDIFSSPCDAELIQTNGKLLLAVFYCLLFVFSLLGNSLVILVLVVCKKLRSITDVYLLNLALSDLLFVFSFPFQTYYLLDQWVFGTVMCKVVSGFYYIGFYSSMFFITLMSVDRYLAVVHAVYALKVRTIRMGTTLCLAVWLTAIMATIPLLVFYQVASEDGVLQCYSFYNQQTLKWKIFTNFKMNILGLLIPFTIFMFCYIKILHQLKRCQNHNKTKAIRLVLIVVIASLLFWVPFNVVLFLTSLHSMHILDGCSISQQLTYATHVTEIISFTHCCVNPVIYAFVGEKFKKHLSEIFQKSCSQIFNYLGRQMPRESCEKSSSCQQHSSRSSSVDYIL

B1: VHH-123 (VHH)
VHH: DVQLVESGGGLVQPGGSLRLSCTASGRTFTNYKSNYKMAWFRQAPGKARAFVGRTDWTGSSAIIANSVKGRFTISRDNAKNTVYLQMNSLRPEDTAVYYCAAGTTIGQYTYWGQGTLVTVSS
notes: also called VHH-69(E1D, N55S, D65G); not shown: C-terminal His6 tag (no FLAG3 tag)
B1 was tested, and the IC50 was 0.71 nM.

B2: VHH-124 (VHH)
VHH: DVQLVESGGGLVQPGGSLRLSCTASGRTFTNYKSNYKMAWFRQAPGKARAFVGRTDWTGKSAIIANSVKGRFTISRDNAKNTVYLQMNSLRPEDTAVYYCAAGTTIGQYTYWGQGTLVTVSS
notes: also called VHH-69(E1D, N55K, D65G); not shown: C-terminal His6 tag (no FLAG3 tag)
With B2 the IC50 was 0.25 nM and the “fold more potent competition IC50 against the control VHH-69(E1D)” value was 2 fold.
